Results as given in US11466066B2, “Variants of human BMP7 protein” (ELI LILLY AND COMPANY, priority 2017, dated 2022).

T1: Chordin-like 2 (Homo sapiens, UniProt Q6WN34)
T1 construct: purchased R&D Systems
T1 sequence (Q6WN34 26-429): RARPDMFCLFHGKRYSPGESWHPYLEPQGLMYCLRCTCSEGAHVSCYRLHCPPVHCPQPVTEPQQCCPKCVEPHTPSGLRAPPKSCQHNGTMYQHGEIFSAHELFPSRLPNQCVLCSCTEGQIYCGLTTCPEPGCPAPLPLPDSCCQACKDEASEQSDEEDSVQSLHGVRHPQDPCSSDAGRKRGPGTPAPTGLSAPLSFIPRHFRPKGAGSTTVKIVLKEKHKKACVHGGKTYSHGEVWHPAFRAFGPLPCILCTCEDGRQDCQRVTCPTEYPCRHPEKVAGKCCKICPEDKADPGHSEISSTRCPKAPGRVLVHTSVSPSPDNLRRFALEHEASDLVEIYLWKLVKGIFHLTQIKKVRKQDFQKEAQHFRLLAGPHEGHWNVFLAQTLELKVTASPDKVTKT

T2: Noggin (Homo sapiens, UniProt Q13253)
T2 construct: purchased R&D Systems
T2 sequence (Q13253 28-232): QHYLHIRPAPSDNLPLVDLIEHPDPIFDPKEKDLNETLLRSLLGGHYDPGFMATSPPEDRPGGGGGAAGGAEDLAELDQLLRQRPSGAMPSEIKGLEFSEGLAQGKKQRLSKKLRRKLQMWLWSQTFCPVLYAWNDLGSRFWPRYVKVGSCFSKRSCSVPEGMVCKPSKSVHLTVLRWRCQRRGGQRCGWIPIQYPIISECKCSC

T3: Coco (Homo sapiens, UniProt Q8N907)
T3 construct: purchased R&D Systems
T3 sequence (Q8N907 23-189): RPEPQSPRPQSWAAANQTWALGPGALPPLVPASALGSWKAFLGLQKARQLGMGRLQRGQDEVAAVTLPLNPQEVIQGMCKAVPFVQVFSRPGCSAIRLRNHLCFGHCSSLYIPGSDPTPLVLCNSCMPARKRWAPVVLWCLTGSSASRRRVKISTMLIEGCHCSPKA


Key:
[1] = Stir-induced aggregation (solubility) assay; type: physicochemical; settings: 40 μg/mL, pH 7.4, stirred 400 rpm
Protocol: Solubility/physical stability of human BMP7 protein and human BMP7 protein variants may be measured in a stir-induced aggregation assay. Proteins are diluted to 40 μg/mL with assay buffer (50 mM sodium phosphate, 150 mM NaCl, pH 7.4) to a total volume of 2 mL. This solution may be put in a 7 mL glass vial containing one ‘flea’ stir bar and stirred at 400-rpm at room temperature. At periodic intervals (typically 0, 30, 60, 90, 120, and 150 minutes) a 150 μL aliquot may be withdrawn and centrifuged for 2 minutes at 16,000×g in a 1.5 mL tube. The supernatant (120 μL) may be transferred to an HPLC vial and the amount of remaining protein may be determined by reversed-phase HPLC under the following conditions: Zorbax C8 SB-300® column (3.5 micron, 4.6×50 mm), mobile phase: A buffer=0.1% TFA (v/v) in water, B buffer=0.085% TFA (v/v) in acetonitrile; flow rate at 1 mL/minute; column heated to 60° C.; autosampler cooled to 10° C., 214 nm UV detection, 80 μL injection, and 20 minute run time using the linear gradient indicated below. From the HPLC chromatograms (not shown) the protein peak or peaks (e.g., mature and pro domains) are integrated and percent change from initial peak area may be calculated.

Follistatin = target: T4, Follistatin (Homo sapiens, UniProt P19883); assay: BMP inhibitor activity, hepcidin promoter luciferase: Follistatin; type: cell-based
T4 construct: made in house
Protocol: (§1) Briefly described, Hep3B2 cells stably transfected with a hepcidin promoter luciferase construct (hereinafter, referred to as Hep3B2_HepPro_luc cells) were used for BMP inhibitor experiments. Hep3B2_HepPro_luc cells may be plated at 30,000 cells per well in a tissue culture treated 96 well plate in DMEM (Hyclone) 5% FBS (Gibco) supplemented with non-essential amino acids (Hyclone) and 200 μg/ml gentecin (Hyclone) for 24 hours. Cells were then starved in OMEM+0.2% BSA for 5 hours. Cells were treated with a mixture of human BMP7 proteins and variants thereof in OMEM (Gibco)+0.2% BSA (Gibco) for 18 hours then developed for luciferase activity utilizing Luciferase reporter Gene Assay Kit (Roche). BMP7 proteins were added at concentrations in the linear range of the assay, at 1 nM and 100 pM. Inhibitors were added at various concentrations in molar excess of the particular BMP7 protein being tested. All BMP inhibitors except Follistatin were purchased from R&D Systems. Follistatin and BMP7 proteins and variants thereof were generated at Eli Lilly and Company.

Chordin-like 2 = target: T1, Chordin-like 2; assay: BMP inhibitor activity, hepcidin promoter luciferase: Chordin-like 2; type: cell-based
Protocol: as §1

Noggin = target: T2, Noggin; assay: BMP inhibitor activity, hepcidin promoter luciferase: Noggin; type: cell-based
Protocol: as §1

Chordin = assay: BMP inhibitor activity, hepcidin promoter luciferase: Chordin; type: cell-based
Protocol: as §1

Coco = target: T3, Coco; assay: BMP inhibitor activity, hepcidin promoter luciferase: Coco; type: cell-based
Protocol: as §1

[2] = molar excess 100X, Hep3B2_HepPro_luc cells, 18 hours
[3] = Chordin-like 2, molar excess 0.1X
[4] = Chordin-like 2, molar excess 1X
[5] = Chordin-like 2, molar excess 10X
[6] = Chordin-like 2, molar excess 100X, Hep3B2_HepPro_luc cells, 18 hours

T4 sequence (P19883 30-344, species assumed): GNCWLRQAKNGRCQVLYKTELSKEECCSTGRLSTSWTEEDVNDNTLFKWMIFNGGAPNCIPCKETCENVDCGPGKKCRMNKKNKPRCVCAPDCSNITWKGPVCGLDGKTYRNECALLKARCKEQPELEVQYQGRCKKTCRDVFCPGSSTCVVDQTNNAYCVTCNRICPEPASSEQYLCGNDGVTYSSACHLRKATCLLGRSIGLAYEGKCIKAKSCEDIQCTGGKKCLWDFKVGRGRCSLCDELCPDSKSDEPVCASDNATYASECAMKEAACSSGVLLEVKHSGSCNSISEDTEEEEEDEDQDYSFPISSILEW

Molecule | Percent of Material Precipitated ([1]; 0 minutes) [%] | Percent of Material Precipitated ([1]; 30 minutes) [%] | Percent of Material Precipitated ([1]; 60 minutes) [%] | Percent of Material Precipitated ([1]; 90 minutes) [%] | Percent of Material Precipitated ([1]; 120 minutes) [%] | Percent of Material Precipitated ([1]; 150 minutes) [%] | % inhibition (Follistatin; molar excess 0.1X) [%] | % inhibition (Follistatin; molar excess 1X) [%] | % inhibition (Follistatin; molar excess 10X) [%] | % inhibition (Chordin-like 2; [3]) [%] | % inhibition (Chordin-like 2; [4]) [%] | % inhibition (Chordin-like 2; [5]) [%] | % inhibition (Noggin; molar excess 0.1X) [%] | % inhibition (Noggin; molar excess 1X) [%] | % inhibition (Noggin; molar excess 10X) [%] | % inhibition (Chordin; molar excess 0.1X) [%] | % inhibition (Chordin; molar excess 1X) [%] | % inhibition (Chordin; molar excess 10X) [%] | % inhibition (Coco; molar excess 0.1X) [%] | % inhibition (Coco; molar excess 1X) [%] | also measured
Wild type human pro-BMP7: homodimers of wild type human mature BMP7 in a non-covalent complex with wild type human pro-domain [reference compound] | 0 | 8 | 42 | 51 | 65 | 72 | −10.4 | 5.9 | 29.5 | 8.9 | 55.9 | 87.5 | −5.3 | 24.8 | 84.8 | −15.1 | −2.2 | 18.9 | −10.2 | 4.0 | % inhibition (Follistatin; [2]): 79.8%; % inhibition (Chordin-like 2; [6]): 88.2%; % inhibition (Noggin; [2]): 87.3%; % inhibition (Chordin; [2]): 76.5%; % inhibition (Coco; molar excess 10X): 17.4%; % inhibition (Coco; [2]): 81.6%
Human mature BMP7 protein variant F9 (SEQ ID NO: 8): homodimer wherein each monomeric subunit has SEQ ID NO: 8 (Y65G/I86L/F93V/N110G/Y128W), disulfide linked (protein, homodimer, disulfide linked) STGSKQRSQNRSKTPKNQEALRMANVAENSSSDQRQACKKHELYVSFRDLGWQDWIIAPEGYAAGYCEGECAFPLNSYMNATNHALVQTLVHVINPETVPKPCCAPTQLGAISVLYFDDSSNVILKKWRNMVVRACGCH | 0 | 7 | 23 | 24 | 37 | 39 | 10.6 | 10.0 | 23.8 | −3.2 | −1.0 | 9.0 | −7.2 | −6.9 | −1.2 | 6.8 | 5.2 | 5.6 | 7.0 | 7.3 | % inhibition (Follistatin; molar excess 0.01X): 3.9%; % inhibition (Chordin-like 2; Chordin-like 2, molar excess 0.01X): −1.5%; % inhibition (Noggin; molar excess 0.01X): −2.6%; % inhibition (Chordin; molar excess 0.01X): 3.7%; % inhibition (Coco; molar excess 0.01X): 2.3%; % inhibition (Coco; molar excess 10X): 28.5%
Wild type human mature BMP7 (SEQ ID NO: 2): dimer of two glycosylated, 139 amino acid disulfide-linked proteins of about 35 kDa, SEQ ID NO: 2 (protein, listed as Homo sapiens, disulfide-linked glycosylated homodimer) STGSKQRSQNRSKTPKNQEALRMANVAENSSSDQRQACKKHELYVSFRDLGWQDWIIAPEGYAAYYCEGECAFPLNSYMNATNHAIVQTLVHFINPETVPKPCCAPTQLNAISVLYFDDSSNVILKKYRNMVVRACGCH | 100 | 100 | 100 | 100 | 100 | 100 | −16.6 | −11.9 | 21.1 | −13.7 | 49.0 | 69.5 | −12.2 | 36.7 | 72.8 | −13.1 | −9.2 | 21.3 | −23.6 | −25.9 | % inhibition (Follistatin; [2]): 54.7%; % inhibition (Chordin-like 2; [6]): 71.9%; % inhibition (Noggin; [2]): 73.7%; % inhibition (Chordin; [2]): 70.9%; % inhibition (Coco; molar excess 10X): 37.6%; % inhibition (Coco; [2]): 77.4%
